According to USRE46585 (LABORATOIRE FRANCAIS DU FRACTIONNEMENT ET DES …, dated 2017):
Residue numbers refer to the chain shown, from its start.

B1: C6A_60C (other)
chain: CPLCSAPELLGGPSVFLFPPKPKDTLMISRTPEVTCVVVDVSHEDPEVKFNWYVDGVEVHNAKTKPREEQYNSTYRVVSVLTVLHQDWLDGKEYKCKVSNKALPAPIEKTISKAKGQPREPQVYTLPPSRDELTKNQVSLTCLVKGFYPSDIAVEWESNGQPENNYKTTPPVLDSDGSFFLYSKLTVDKSRWQQGNVFSCSVLHEALHYHYTQKSLSLSPGK
notes: EU numbering
B2: T5A_74F (other)
chain: B1 chain with L3R, A105V, N136D, A153V, L203M
notes: EU numbering
B3: C6A_78B (other)
chain: B1 chain with S5P, T31N, D90N, A153V, L203M
notes: EU numbering
B4: C6A_69D (other)
chain: B1 chain with S5P, T82A, A105V, E157V, N164T, L203M
notes: EU numbering
B5: T5A_74D (other)
chain: B1 chain with L3R, S5P, A105V, N136D, A153V, L203M
notes: EU numbering
B6: T5A_74C (other)
chain: B1 chain with S5P, A105V, N136D, A153V, L203M
notes: EU numbering
B7: C6A_60D (other)
chain: B1 chain with L3R
notes: EU numbering
B8: C6A_78C (other)
chain: B1 chain with L3P, T31N, D90N, A153V, L203M
notes: EU numbering
B9: C6A_78F (other)
chain: B1 chain with L3R, T31N, D90N, A153V, L203M
notes: EU numbering
B10: C6A_74D (other)
chain: B1 chain with L3R, S5P, V34I, L203M
notes: EU numbering
B11: T5A_74B (other)
chain: B1 chain with L3P, A105V, N136D, A153V, L203M
notes: EU numbering
B12: C6A_78D (other)
chain: B1 chain with L3R, S5P, T31N, D90N, A153V, L203M
notes: EU numbering
B13: T7A_58 (other)
chain: B1 chain with L3P, S5P, Q137E, L203M
notes: EU numbering
B14: T7A_48 (other)
chain: B1 chain with L3P, S5T, L9R, A105V, L203M
notes: EU numbering
B15: T7A_17 (other)
chain: B1 chain with L3P, S5P, V39E, P66S, D90N, Q137R, A153V, L203M
notes: EU numbering
B16: T5A_40 (other)
chain: B1 chain with L3P, S5T, V39E, T82P, D90N, A153V, N196T, L203M, Y209N
notes: EU numbering
B17: T7A_49 (other)
chain: B1 chain with L3P, S5T, K95E, Q137R, L203M
notes: EU numbering
B18: T6A_47 (other)
chain: B1 chain with L3P, S5T, D90N, K95T, L203M
notes: EU numbering
B19: T8A_24 (other)
chain: B1 chain with L3P, S5P, V39E, T82P, D90N, A153V, L203M, Y209S
notes: EU numbering
B20: T7A_46 (other)
chain: B1 chain with L3P, S5P, V39E, D90N, A153V, G160R, L203M, Y209S
notes: EU numbering
B21: T5A_52 (other)
chain: B1 chain with L3P, S5P, A102V, A105V, L203M
notes: EU numbering
B22: T7A_18 (other)
chain: B1 chain with L3P, S5P, V39E, D90N, A153V, Q161R, L203M, Y209S
notes: EU numbering
B23: T6A_40 (other)
chain: B1 chain with L3P, S5A, F16L, V39E, D90N, A153V, N196T, L203M, Y209N
notes: EU numbering
B24: T5A_51 (other)
chain: B1 chain with L3P, S5P, V39E, D90N, A153V, F179L, L203M, Y209S
notes: EU numbering
B25: T7A_24 (other)
chain: B1 chain with L3P, S5P, V39E, D90N, A153V, N196T, L203M
notes: EU numbering
B26: T8A_45 (other)
chain: B1 chain with L3P, S5P, D90N, S150A, A153V, L203M
notes: EU numbering
B27: T6A_93 (other)
chain: B1 chain with L3P, S5P, T74K, Q86R, L203M
notes: EU numbering
B28: T7A_57 (other)
chain: B1 chain with L3P, S5T, T82A, A105V, Q193E, L203M
notes: EU numbering
B29: T8A_81 (other)
chain: B1 chain with L3P, S5P, V39A, E157V, L203M
notes: EU numbering
B30: T5A_44 (other)
chain: B1 chain with L3P, S5P, F16L, V39E, T82P, D90N, A153T, V172M, L203M, Y209N
notes: EU numbering
B31: T8A_34 (other)
chain: B1 chain with L3P, S5P, T82A, T110A, L203M
notes: EU numbering
B32: T8A_41 (other)
chain: B1 chain with L3P, S5P, V39E, D90N, P118S, A153V, L203M, Y209S
notes: EU numbering
B33: T5A_90 (other)
chain: B1 chain with L3P, S5P, A105V, K167R, S199L, L203M
notes: EU numbering
B34: T7A_35 (other)
chain: B1 chain with L3P, S5P, Q137R, L203M, S219P
notes: EU numbering
B35: T6A_13 (other)
chain: B1 chain with L3P, S5T, A105V, Q137R, L203M
notes: EU numbering
B36: T7A_87 (other)
chain: B1 chain with L3P, Q137R, L203M
notes: EU numbering
B37: T5A_59 (other)
chain: B1 chain with L3P, S5P, D90N, Q117R, R130G, E157V, L203M
notes: EU numbering

target: T1, FcRn-p3 fusion protein (human, UniProt P55899 24-297; P61769 21-119); experiment: phage ELISA pH6
T1 construct: baculovirus expressed; coated on ELISA wells; not shown: amino terminal part of bacteriophage p3 protein and CVDE protein
T1 sequence (P55899 24-297, chain 1 of 2): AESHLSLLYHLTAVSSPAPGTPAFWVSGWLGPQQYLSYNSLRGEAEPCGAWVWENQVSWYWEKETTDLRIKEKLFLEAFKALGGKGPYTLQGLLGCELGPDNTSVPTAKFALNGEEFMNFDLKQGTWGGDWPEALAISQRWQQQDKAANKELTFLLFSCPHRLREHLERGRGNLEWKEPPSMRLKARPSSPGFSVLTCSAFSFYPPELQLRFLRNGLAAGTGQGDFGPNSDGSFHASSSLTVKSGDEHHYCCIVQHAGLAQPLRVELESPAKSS
T1 sequence (P61769 21-119, chain 2 of 2): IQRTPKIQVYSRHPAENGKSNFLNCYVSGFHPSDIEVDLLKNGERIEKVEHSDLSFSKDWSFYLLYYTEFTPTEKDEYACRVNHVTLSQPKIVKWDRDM

Binder	Ratio/Fc-H [fold]
B1	5.3
B2	16.8
B3	14.4
B4	4.8
B5	26
B6	7.5
B7	7.4
B8	9.2
B9	9.4
B10	18.6
B11	5.9
B12	28.3

target: T1, FcRn-p3 fusion protein; experiment: phage ELISA pH6 (est.)

Binder	Ratio/FWT [fold]
B13	9.4
B14	11.6
B15	6.3
B16	10.8
B17	11.6
B18	9.1
B19	11.1
B20	8.2
B21	5.9
B22	8.9
B23	9.1
B24	9
B25	7.2
B26	5.9
B27	3.5
B28	8.1
B29	8.2
B30	3.8
B31	5.6
B32	7.9
B33	5.7
B34	5.4
B35	9.3
B36	9.3
B37	7.8

target: T1, FcRn-p3 fusion protein; experiment: phage ELISA pH6 (est.); remark: another data set of the same source

Binder	Ratio/Fc-WT [fold]
B1	17.1
B2	53.8
B3	45.9
B4	15.3
B5	83.1
B6	24
B7	23.8
B8	29.4
B9	30.1
B10	59.7
B11	18.8
B12	90.5

target: T1, FcRn-p3 fusion protein; experiment: phage ELISA pH6; remark: another data set of the same source

Binder	Ratio/Fc-H [fold]
B13	2.9
B14	3.6
B15	2
B16	3.4
B17	3.6
B18	2.8
B19	3.5
B20	2.6
B21	1.9
B22	2.8
B23	2.8
B24	2.8
B25	2.3
B26	1.8
B27	1.1
B28	2.5
B29	2.5
B30	1.2
B31	1.8
B32	2.5
B33	1.8
B34	1.7
B35	2.9
B36	2.9
B37	2.4
